Target: T1, GST-ATIPmouse-short fusion protein (from pGEX-4T1-GST-ATIPmouse-short), on glutathione-agarose beads (mouse, UniProt Q5HZI1 937-1053)
T1 construct: also called GA-GST-ATIPmouse-short; GST-ATIPc; not shown: glutathione S-transferase (GST) encoded by pGEX-4T-1 (Pharmacia)
T1 sequence: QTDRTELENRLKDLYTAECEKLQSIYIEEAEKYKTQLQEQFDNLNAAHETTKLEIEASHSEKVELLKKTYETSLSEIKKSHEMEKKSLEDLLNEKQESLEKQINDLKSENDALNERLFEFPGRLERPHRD
Experiment: GST pull-down, SDS-PAGE and immunoblot with anti-MBP

binding result: no binding
B1: MBP-AT1: fusion of Maltose Binding Protein and the C-terminal end of the human AT1 receptor (Leu 297-Glu 359) (receptor, UniProt P30556 297-359, looked up, not shown: large carriers)
chain: LNPLFYGFLGKKFKRYFLQLLKYIPPKAKSHSNLSTKMSTLSYRPSDNVSSSTKKPAPCFEVE
notes: range 297-359
